Laboratory results: patent publication US11472855, “RNA-binding protein” (Panitch Schwarze Belisario & Nadel LLP)
Residue numbers refer to the chain shown, from its start.

T1: hPUF_MT(R8_N12S,Q16R, R3→R5, R4→R6) (R8 repeat N12S,Q16R)
T1 chain: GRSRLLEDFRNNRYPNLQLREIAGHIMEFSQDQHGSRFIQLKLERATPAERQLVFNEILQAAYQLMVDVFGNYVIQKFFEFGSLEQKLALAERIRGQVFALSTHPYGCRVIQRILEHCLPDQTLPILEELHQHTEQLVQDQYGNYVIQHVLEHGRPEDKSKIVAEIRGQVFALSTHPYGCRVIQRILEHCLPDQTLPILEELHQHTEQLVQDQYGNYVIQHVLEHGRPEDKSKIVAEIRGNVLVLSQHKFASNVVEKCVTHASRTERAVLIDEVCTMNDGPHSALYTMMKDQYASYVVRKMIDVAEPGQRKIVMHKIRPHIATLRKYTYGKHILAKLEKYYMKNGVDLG

T2: hPUF_MT(R3→R5, R4→R6)
T2 chain: T1 chain with S295N, R299Q

T3: hPUF_MT(1-2-5-6-5-6-5-6-7-8) / (R5:A_13R)3(R6:U_13Y)3
T3 chain: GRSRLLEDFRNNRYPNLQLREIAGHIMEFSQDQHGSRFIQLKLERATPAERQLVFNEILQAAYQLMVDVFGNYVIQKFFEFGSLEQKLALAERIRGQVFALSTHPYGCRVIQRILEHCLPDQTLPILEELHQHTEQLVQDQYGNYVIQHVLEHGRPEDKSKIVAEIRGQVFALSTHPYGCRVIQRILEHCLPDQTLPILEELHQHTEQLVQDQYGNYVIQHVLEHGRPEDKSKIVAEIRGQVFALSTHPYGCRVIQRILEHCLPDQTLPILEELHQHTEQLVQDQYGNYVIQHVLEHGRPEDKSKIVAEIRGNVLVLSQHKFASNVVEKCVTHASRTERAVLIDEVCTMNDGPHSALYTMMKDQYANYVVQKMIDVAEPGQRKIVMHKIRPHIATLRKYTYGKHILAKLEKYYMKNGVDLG

T4: hPUF_MT(R5:A_13R)(R5:A_13Y)2(R6:U_13Y)3
T4 chain: T3 chain with R181Y, R253Y


Experiments:
Conditions in all cases: label: Alexa680 at 5' and 3'
[1] = biological target: T1, hPUF_MT(R8_N12S,Q16R, R3→R5, R4→R6); assay: EMSA; C>>G
hPUF_MT(R3→R5, R4→R6) = biological target: T2, hPUF_MT(R3→R5, R4→R6); assay: EMSA; binds U exclusively at R8 position
[2] = biological target: T3, hPUF_MT(1-2-5-6-5-6-5-6-7-8) / …; assay: EMSA; Example 2-5 reported comparable to WT
[3] = biological target: T4, hPUF_MT(R5:A_13R)(R5:A_13Y)2(R6:U_13Y)3; assay: EMSA; equivalent

Binder	binding result [1]	binding result (hPUF_MT(R3→R5, R4→R6))	binding signal [2]	binding signal [3]
CCAGAAUCGUAUAUAUUCG (ssRNA) [OTS-2035]	binds	no binding	–	–
CCAGAAUUGUAUAUAUAUUCG (ssRNA) [OTS-1844]	–	–	~10 fold of WT	~1 fold of 13R protein
